# Laboratory results taken from paper PMC7721868 (Scientific Reports, 2020).
# B1: GST fusion protein of the constitutively open mutant of cytoplasmic region Stx3 (L165A/E166A) (domain or fragment, rat, UniProt Q08849 1-265, looked up)
# chain: MKDRLEQLKAKQLTQDDDTDEVEIAIDNTAFMDEFFSEIEETRLNIDKISEHVEEAKKLYSIILSAPIPEPKTKDDLEQLTTEIKKRANNVRNKLKSMEKHIEEDEVRSSADLRIRKSQHSVLSRKFVEVMTKYNEAQVDFRERSKGRIQRQLEITGKKTTDEEAAEMLESGNPAIFTSGIIDSQISKQALSEIEGRHKDIVRLESSIKELHDMFMDIAMLVENQGEMLDNIELNVMHTVDHVEKARDETKRAMKYQGQARKKLI
# notes: syntaxin 3 (Stx3), rat, cytoplasmic region, residues 1-265, with LE165/166AA; Made by site-directed mutagenesis in the Stx3 (1–265) pGEX-4T-3 plasmid; also called open-conformation mutant (LE165/166AA); source: E. coli Rosetta 2, purified (glutathione agarose, eluted with glutathione, dialyzed)
# B2: GST-fusion protein containing only the Habc domain (1–146) of Stx3 (domain or fragment, rat, UniProt Q08849 1-146, looked up)
# chain: MKDRLEQLKAKQLTQDDDTDEVEIAIDNTAFMDEFFSEIEETRLNIDKISEHVEEAKKLYSIILSAPIPEPKTKDDLEQLTTEIKKRANNVRNKLKSMEKHIEEDEVRSSADLRIRKSQHSVLSRKFVEVMTKYNEAQVDFRERSK
# notes: syntaxin 3 (Stx3), rat, N-terminal region with the Habc domain, residues 1-146; Cloned into pGEX-4T-3, which by my knowledge puts GST at the N-terminus; also called GST-Stx3-Habc; GST-Stx3-1–146; source: E. coli Rosetta 2, purified (glutathione agarose, eluted with glutathione, dialyzed)
# Key:
# [1] = molecular target: T1, ubiquitin on ubiquitin-coated agarose beads (UniProt P0CG53 1-76); experiment: pull-down; ubiquitin-coated agarose beads with 1 µM purified GST-fusion protein in Buffer A (25 mM HEPES–KOH pH 7.4, 125 mM potassium acetate, 2.5 mM magnesium acetate, 5 mM EGTA) + 1% FBS, 2 h at room temperature; uncoated CL4B beads as control; immunoblot with anti-GST or anti-Stx3; settings: both partners purified
# T1 construct: ubiquitin, the cut product of the ubiquitin precursors; Coupled to agarose; also called ubiquitin-coated beads; ubiquitin-coated (U) agarose beads; source: bought: Millipore-Sigma (ubiquitin-coated agarose)
# [2] = molecular target: T2, Purified bovine ubiquitin (bovine, UniProt P0CG53 1-76); experiment: SPR; Biacore 2000, room temperature, HBS-EP buffer (10 mM HEPES pH 7.4, 150 mM NaCl, 3 mM EDTA, 0.005% Tween-20); GST-fusion proteins captured on a CM5 chip with a GST capture kit, free ubiquitin flowed over; settings: both partners purified
# T2 construct: ubiquitin, bovine, the cut product of the ubiquitin precursors; also called free ubiquitin; mono-ubiquitin in solution; source: bought: Millipore-Sigma (U6253)
Binder,fold change of pull-down against wild-type Stx3 [1],fold change of pull-down against the entire Stx3 cytoplasmic domain [1],Kd [2]
B1,1.73 fold,–,–
B2,–,3.78 fold,1.36 mM
